Reference: publication PMC3531375

Biological target: MAP1B light chain 1, C-terminal myc-tag, expressed in COS7 cells (UniProt P15205)
Chain of UniProt P15205 (P15205 2210-2459): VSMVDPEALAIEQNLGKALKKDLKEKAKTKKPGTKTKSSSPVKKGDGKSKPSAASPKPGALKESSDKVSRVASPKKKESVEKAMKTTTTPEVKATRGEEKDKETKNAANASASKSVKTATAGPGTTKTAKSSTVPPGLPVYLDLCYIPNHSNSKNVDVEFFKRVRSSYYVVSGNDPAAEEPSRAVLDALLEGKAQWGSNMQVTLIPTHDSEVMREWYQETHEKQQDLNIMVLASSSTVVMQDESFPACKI

With “N-terminal truncated Tiam1 (C1199), C-terminal HA-tag (domain or fragment)” the Rac1-GTP pulled down by GST-PAK1 CRIB domain from lysates of COS7 cells co-expressing Tiam1 (C1199 HA) and myc-tagged LC1, relative to total Rac1 was 2 fold.
